Data as given in the DeepSol protein solubility set.

Assay: soluble on expression in E. coli; label from the status in PepcDB or PDB records

Row | Sequence | soluble on expression in E. coli
1 | MIKDLVRPELQKLVPYVSHQVPYRIKLDANESPFELPESIRKKLADYFLKGPGLNIYPDNESVELRKTIAKYWNVDADEVIVGTGSNQLIQLIITVFVGKGEKVLYPWPTFSMYKINTLIAGGEPVAFPLDKEKDFVLDTDKFIEAVKTENAKVVFLCNPNNPTGGLVPLEHIEKIVKECKSSIIVVDEAYAEFCPQSVIPLVKKYENLVVLRTFSKAYLLAGARCGYSISGIEIANEINKVRPTYNVSSLTQLIAKMVFEEQEEMQKMIRYLIEQRGELEKSLKKIKDVCIYPSHANYILVKVPEAEMISKELQKRGILIRSFPNDPVLYDCIRITVGTKEQNDIFLEEFSDIINNF | not soluble
2 | MAHHHHHHMVFSTHGIRVVYNTANVDRSLYAVVHCSDGKYAEVSKDHLNRLKFIEKSSEEEDIEFDYPEAVLESLAQWTLKYGMDGVAVSSTVRPCIYRNVQHVLKDDWEREFFTTRLMNDLNIMHYLQTINAAEKYEMKGFHDFLCVCLSCKLRNEEDTELVHKIMGLEDFVEIGPSDLDEAACRYTWLDQAIKPTVRR | not soluble
3 | MAHHHHHHMETTAEEISAMLNENEHALIGELQGKYDFINFNEMKNYKEKKLHHELTLEVQKFINNKNVQVKDKFRLFYTLLSPLMSKLKKTIYAELLYIVTANFDANWTISYLKESEKNLENDKDAIIIYRCILILKYIELGDFKSCENEIENTKNLLQGVIGLNVVAHKFYNFAIMKYYNVLNKSDLFVKYALLYLAYTPLNDLDEADKIEIGTHICMHSIISEDVYNIGEIIQLPLINVCLKNNEQTNWLYQLIYIYNEGNIEVFNQVVHKYEENIKNSLLKDYKKNMIKKITLLALMDLAFKKKKQRSDISFEEIAQHCKVDVNEVEKMLITAKSKNILTCQIDEIQKSVKITWVKPRVLNNEKIFFMKESIDKWITHSKNLLTYMEDLSVELLIS | not soluble
4 | MGSDKIHHHHHHMKFSEPLVEGRLIRRYKRFLADVQLPDGTEVTAHCPNTGSMLGCQPENARVWLSRSDNPKRKLQYTWELVETEPGVLACVNTVRPNAQARAAIEAGVVQSLAGYAQCRAEVRYGSEKSRIDLLLSGHDHDPDAWVEVKNVTLAEGGEGYFPDAVTERGQKHLRELMAQVQNGDRAVLFFVVNHTGIEQVRPADHIDARYGQLLREACEAGVEVIAYRAALAGEDGDPSGRLELVEEVPVSLEP | not soluble
5 | PEKPAKTQKTSLDEALQWRDSLDKLLQNNYGLASFKSFLKSEFSEENLEFWIACEDYKKIKSPAKMAEKAKQIYEEFIQTEAPKEVNIDHFTKDITMKNLVEPSLSSFDMAQKRIHALMEKDSLPRFVRSEFYQELI | soluble
6 | AGSNGAQEKKYIVGFKQTMSTMSAAKKKDVISEKGGKVQKQFKYVDAASATLNEKAVKELKKDPSVAYVEEDHVAHAY | soluble
7 | MKSLIIVNPADCIGCRTCEVACVVAHPSEQELNADVFLPRLKVQRLDSISAPVMCHQCENAPCVGACPVGALTMGEQVVQTNSARCIGCQSCVSACPFGMITIQSLPGDTRQQIVKCDLCEQREEGPACVESCPTQALQLLTERELRRVRQQRIVASGENPL | not soluble
8 | KEKFNYYIGANIAADKNEVTKITLGGQNLMISGYSAHGAGGRGINMFAEGHPMSYFNLIETDGLFRSAEEIANYKNKDGELIQPAAQVGDVRYKDWNGDGKINTDDQHDVGSPFPDFTFGIRLGGEWNNFDFNLFFDGMVGNKIYNYPRYRLESGNFNGNMSTVLANSWRPDNQNTDIPRFSKTDGADNKWAYTDRWLEDGSYIRLKTLDIGYTLPKVLTKKIKLENVRIYTSMENLFTLTKYSGYTPDLGESSVAGVAYNVFSRGIDQGRYPLPRTISFGIQVNL | not soluble
9 | GAHMVTSNVVLVSGEGERFTVDKKIAERSLLLKNYLNDMGDDDDEDDDEIVMPVPNVRSSVLQKVIEWAEHHRDSNFPDEDDDDSRKSAPVDSWDREFLKVDQEMLYEIILAANYLNIKPLLDAGCKVVAEMIRGRSPEEIRRTFNIVNDFTPEEEAAIRRENEWAEDR | soluble
10 | DDFETSLTELEPLEKDAYIVRLVFAGSTTTEPIVSSLSTAYDIKINILEANIKNTKNGTVGFLVLHIPYISSVDFGKFEKELIERQVKMEVLRHG | soluble
11 | GMDDLSEFVDQVPLLDHHCHFLIDGKVPNRDDRLAQVSTEADKDYPLADTKNRLAYHGFLALAKEFALDANNPLAAMNDPGYATYNHRIFGHFHFKELLIDTGFVPDDPILDLDQTAELVGIPVKAIYRLETHAEDFMLEHDNFAAWWQAFSNDVKQAKAHGFVGFKSIAAYRVGLHLEPVNVIEAAAGFDTWKHSGEKRLTSKPLIDYMLYHVAPFIIAQDMPLQFHVGYGDADTDMYLGNPLLMRDYLKAFTKKGLKVVLLHCYPYHREAGYLASVFPNLYFDISLLDNLGPSGASRVFNEAVELAPYTRILFASDASTYPEMYGLAARQFKQALVAHFNQLPFVDLAQKKAWINAICWQTSAKLYHQERELRV | soluble
12 | MGNGGILCALKTDSCSMLVISNNVHLPDAEIELTAIRAQGAGGQNVNKVSSAVHLRFDIPASSLPPFYKERLLALRDSRITSDGVIILKAQQYRTQEQNRADALERLTELILSAIKVEKKRRPTKPTLGSKKRRLETKAKRGSIKAGRGKVDFLEHHHHHH | soluble
13 | MRGNKGGERSRTFTVQARIVGRWQHPCSPRPEGRVHPQLPPHAAATRLACVRLYKHCGICGTPTHAVSHRNDTHDGDSAPTRCPRAEMPLSKKSSSLRQAIPCSVLFAADPLQVPSNACVGNRLSTVRRQHQFSASRHTKHAPSVAEDGNGIPRPPPVSVGAGVVDNANEPFAEYARLSTSLASRAHVEPFSSAPMSSFASCPYVAASSHGSTTMSKALRRLPTTVTALPGMAPPPPTISAAVPRNGHRTAGRTSAPLRVHLVHRTRSPPGLAHSPPAYSSTVTTSMPHEIPPTSALVLPYCTDAQLRNLFATLFVRTGDATWSVHQHILPFLTVRQHCNLSAAPSQVTAFFGLTSHSDEDVHEKGATGAAGHQGEQAFFGGPWATKEMNRVASQLCYSFVYVGILGCGEEMCWDTLPMPLGGIPALARRSPVRNAYNTGSTSASQSPVTRSSSSSAHPATPEKQCLCPTPHRSLRNSPCVSSSALGVVALMEGLKQHQPSRMVEDGGADDDEGGPKSTVLYHTDQLESSTLDVVTTSTLTSVEFRGVVEAPPLVQEVAFVRGATRSYKLSWETARGSLHT | soluble
14 | MGEDTRVSYQDIKARVLAAIRDNTWPPGAMLPGEVALAQEYGCARATVNRAMRELAEEGILERKRKAGTRVKLAPARQARFSIPVVREEIEALGASYRYALVSRSEEATPKWLAAQLGLGAGDRVLHLVCMHYADERPFQLEQRWINLATVPQAAKKDFSQTGPNEWLVSEVPFTDIRLSFSACRGNRETAEFLGGNETDAHFTVERVTWLGERPVTYARLLFHAGYRMTTTL | not soluble
15 | MGSDKIHHHHHHMNYRDELILQWVNQQGKASVIELAQHCDISVETIRRDLNKLANKGLLHRTHGGAVSNKTKDLGSFFQTRKHINATAKRHIAQKALDLLYENAVIGLDASSTSWYFAYLMPDIPCTVVTNSMFNINALVNKSNVKTIVTGGVYSAKYEAFYGPLSEYLLQRLHINFSVFSCSGIDKNGNIWESNELNASLKRKMMEASERAYLLIDSSKFEKTSLIQLADLSKINTIFSDRSLPDNLQKYCEQHDIMTVL | not soluble
16 | MAKVVVLGAGVSGHTCASFLKKKLGKQHEVVVISPNSYYQWIPSNIWVGVGHMTIDDVRFKLKKVYDRWGIDYKQAKAVSIHPEGDANISKGYVTIEYTDEEHAGYTETVDYDYLVNATGPKLNFEATEGLGPDKNSLSVCTYSHAAHAWEELQKSIEKMKNGQKQRFLIGTGHAMATCQGAAFEYILNVAHEISRRGLSHMAELTWISNEYELGDFGMGGAFIKRGGYITPTKVFTESLLAEYGIKWIRRAGVYKVEPGVAHYETLDGEMLSQEFDFAMLIPSFSGVGLTAFDKSGNDITDKMFLPNKFMKVDADYTAKPFGEWGANDWPTIYQTPMYSNIYAAGIAFAPPHSISKPMTSVNGRQIFPTPPRTGMPSGVIGKIIALNISEQIKGNHKEHHHKASMARMGAACIVSAGFGSFDGLGASMTVFPIVPDWEKYPEWGRDMTYSVGEVGLAGHWLKFMLHYLFFHKAKGYPFWYLIPELEHHHHHH | not soluble
17 | MKEKYRHSLKARFFLKDNFLKSEPVFWFHACSYGEVKSLEPIIHALKEPILISVTTNTGFELAAQTYQHSKHIEVRYLPFETLLFAWKKNLKRLKTLVVTEAELWFNVFDTAQKLGAKTMLINARISVRSYPKYQRFSFFYALLFKRIDLILAQSKEDKKRLLNLGAKKVVDFLNIKRFSKPLEHHHHHH | not soluble
18 | MPYPKKVTIKEVGPRDGLQNEPVWIATEDKITWINQLSRTGLSYIEITSFVHPKWIPALRDAIDVAKGIDREKGVTYAALVPNQRGLENALEGGINEACVFMSASETHNRKNINKSTSESLHILKQVNNDAQKANLTTRAYLSTVFGCPYEKDVPIEQVIRLSEALFEFGISELSLGDTIGAANPAQVETVLEALLARFPANQIALHFHDTRGTALANMVTALQMGITVFDGSAGGLGGCPYAPGSSGNAATEDIVYMLEQMDIKTNVKLEKLLSAAKWIEEKMGKPLPSRNLQVFKSSLEHHHHHH | soluble
19 | MLPAEREQFIITFLKTNKKATIHDLALEFNVHEATIRRDLNKLEQYNQIKRTHGGVVLNDSEVWDELNFDDRETSYYDEKVAIGLKAAEFVENGDTLFIDSGSTTIHFARALTQKSNLTIITNDIHIASILKSTANQIIVTGGILYQDNYLLNGMITNETLKLFNPSKLFLATPAIDLEKGITHFNDTLASTKIQMVKQAKAVYVLTDSSKFDKVALYNVCSSDTIDVLITDQTNKNIDWQAYDNHFKHLITVHAEAHPELEHHHHHH | soluble
20 | MSPEQSPFHAGELAIQERAGVREQVAGFGSRAIRTFMPDQHREFFALLSLLLVGSLDADGYPSASVLWGPPGFARSPEPTRLRIDNLPQADDPLAANLEAGTRLGILGLEWPTRRRNRMNGRVLARDGKGFTVGVEQSFGNCPKYIQARSHQPVSRIASPALQGEGLDPRWLSLVSCSDTLFIASQHADPLRGGVDVSHRGGPPGFLRLGADGRLWLPDYAGNRLFNTLGNLLQDPRCGLLFIDFDNGDLLHLHAEAELFWPGSQPSIPWPAGAERLLALRPAGWRWRRGRLPLAFGEPQPSPFLPAGES | not soluble
21 | MGLCVSKPSVAGSPEHYAAHVAEQATPSEEGSGTPAQATSSYSATDPALQGLARRGKKVDLSRSGLPERVALKTKLLANSLSDAKDAGVRSSIVKYGERTLKMLAANKQPDEALLKLDIKNLPALASVYNRRYPGLNIQHFDSPIDFLQSLSEQTTSVVSQRAVLRLERDGEHHVAADVRRRPNGEASVIVLEPARLLTFVTGHTQLRRQALSQLGENAKFAFIQVGAQKSAADCLMFDLHFALHAHQHSSLFDQWHDNMVNHGTIDPYGQGAASPDALLEDAGVELMLGEQMLPAIFYKHTHSSGVVEEVDRSQPGSAYTDVSTSGRQQQHESLEQRVQAFRVDRGYSASIETSRATKIRSALETAISDRQS | not soluble
22 | EMVKLQSVITGSMQTGRSRARIEQAVVALLTYVEEETDAFQILVRDMKAGQDHSYSTLLNDAVEQVSHILGQAFERSGLNPKNATLYAQALVGMVSMTAQWWLDRRKEPNAATKEQVAAHIVNLCWNGLAGMEANPQLSNIDSPPETLGAH | not soluble
23 | MNRTALVLGCLLVATPALAQSVTEKTGVNSVLGIAPTTPDFVKQVAISDMFEIQSNQLAERKGNAAQQAFAKQMIADHTKTSSELKAMVSDGKVKAELPTALDSAHQSKLDKLKNANGAEFSETFDEQQVSAHKDAVSLFERYAKGGDNDALKKWAGTTLPKLQHHLEMAQQLERDRTNTTSESKAKK | not soluble
